Measured values as given in US20230406950A1 (LYVGEN BIOPHARMA, published 2023).
Like-named read-outs stand apart in the source and are kept apart here.

T1: human GITR expressed on cells (human, UniProt Q9Y5U5 26-241)
T1 construct: whole, on cells; also called TNFRSF18; CD357
T1 sequence (looked up): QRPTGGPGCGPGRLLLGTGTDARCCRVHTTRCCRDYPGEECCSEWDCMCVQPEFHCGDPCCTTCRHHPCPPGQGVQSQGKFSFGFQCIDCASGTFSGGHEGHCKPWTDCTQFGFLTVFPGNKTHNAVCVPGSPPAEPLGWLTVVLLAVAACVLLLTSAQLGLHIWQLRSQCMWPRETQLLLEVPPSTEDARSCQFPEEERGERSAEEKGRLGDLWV

B1: Ly754 (bispecific antibody, human IgG1, kappa)
heavy: QVQLVQSGAEVKKPGASVKVSCKASGYTFAGFEMHWVRQAPGQGLEWMGAIDPKTGGTDYNQKFKDRVTMTRDTSISTAYMELSRLRSDDTAVYYCARDLGYFDVWGQGTLVTVSSASTKGPSVFPLAPSSKSTSGGTAALGCLVKDYFPEPVTVSWNSGALTSGVHTFPAVLQSSGLYSLSSVVTVPSSSLGTQTYICNVNHKPSNTKVDKKVEPKSCDKTHTCPPCPAPELLGPSVFLFPPKPKDTLMISRTPEVTCVVVDVSHEDPEVKFNWYVDGVEVHNAKTKPREEQYNSTYRVVSVLTVLHQDWLNGKEYKCKVSNKALPAPIEKTISKAKGQPREPQVYTLPPSREEMTKNQVSLTCLVKGFYPSDIAVEWESNGQPENNYKTTPPVLDSDGSFFLYSKLTVDKSRWQQGNVFSCSVMHEALHNHYTQKSLSLSPGGGGGSGGGGSGGGGSGGGGSEIVLTQSPATLSLSPGERATLSCRASKSVRTGMHWYQQKPGQAPRLLIYGASNLESGIPARFSGSGSGTDFTLTISSLEPEDFAVYYCQQSWNHFTFGQGTKLEIKGGGGSGGGGSGGGGSGGGGSQVQLQESGPGLVKPSETLSLTCTVSGFSLTSYNVHWIRQPPGKGLEWIGVIWSGVRTDYNSVLKPRVTISVDTSKNQFSLKLSSVTAADTAVYYCARGTYDDNYHDVMDAWGQGTLVTVSS
light: DIQMTQSPSSLSASVGDRVTITCRASQDIRSNLNWYQQKPGGAVKLLIYYTSRLHSGVPSRFSGSGSGTDYTLTISSLQPEDFATYFCQQSEKLPRTFGGGTKVEIRRTVAAPSVFIFPPSDEQLKSGTASVVCLLNNFYPREAKVQWKVDNALQSGNSQESVTEQDSKDSTYSLSSTLTLSKADYEKHKVYACEVTHQGLSSPVTKSFNRGEC
notes: Anti-GITR/CD137: Ly1630 heavy chain fused to TM685 scFv (VL-VH); Ly1630 light chain
B2: Ly744 (bispecific antibody, human IgG1, kappa)
heavy: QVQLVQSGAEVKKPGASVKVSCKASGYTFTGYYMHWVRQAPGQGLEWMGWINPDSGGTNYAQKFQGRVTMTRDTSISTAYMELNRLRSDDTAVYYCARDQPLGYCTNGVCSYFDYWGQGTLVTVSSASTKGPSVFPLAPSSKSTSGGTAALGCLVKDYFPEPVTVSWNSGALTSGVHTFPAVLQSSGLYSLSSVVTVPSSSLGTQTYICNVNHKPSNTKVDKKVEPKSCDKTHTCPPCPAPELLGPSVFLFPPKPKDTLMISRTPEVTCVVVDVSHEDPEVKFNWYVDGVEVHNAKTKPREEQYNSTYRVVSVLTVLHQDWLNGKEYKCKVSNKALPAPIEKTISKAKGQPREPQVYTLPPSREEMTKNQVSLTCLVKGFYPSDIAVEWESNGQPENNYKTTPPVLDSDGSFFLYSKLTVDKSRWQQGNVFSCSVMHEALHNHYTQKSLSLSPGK
light: DIQMTQSPSSVSASVGDRVTITCRASQGIYSWLAWYQQKPGKAPNLLIYTASTLQSGVPSRFSGSGSGTDFTLTISSLQPEDFATYYCQQANIFPLTFGGGTKVEIKRTVAAPSVFIFPPSDEQLKSGTASVVCLLNNFYPREAKVQWKVDNALQSGNSQESVTEQDSKDSTYSLSSTLTLSKADYEKHKVYACEVTHQGLSSPVTKSFNRGECGGGGSGGGGSGGGGSGGGGSDIQMTQSPSSLSASVGDRVTITCRASQDIRSNLNWYQQKPGGAVKLLIYYTSRLHSGVPSRFSGSGSGTDYTLTISSLQPEDFATYFCQQSEKLPRTFGGGTKVEIRGGGGSGGGGSGGGGSGGGGSQVQLVQSGAEVKKPGASVKVSCKASGYTFAGFEMHWVRQAPGQGLEWMGAIDPKTGGTDYNQKFKDRVTMTRDTSISTAYMELSRLRSDDTAVYYCARDLGYFDVWGQGTLVTVSS
notes: Anti-CD40/CD137: Ly253-derived heavy chain; Ly253 light chain fused to Ly1630 scFv (VL-VH)
B3: Ly740 (bispecific antibody, human IgG1, kappa)
heavy: QVQLVQSGAEVKKPGASVKVSCKASGYTFAGFEMHWVRQAPGQGLEWMGAIDPKTGGTDYNQKFKDRVTMTRDTSISTAYMELSRLRSDDTAVYYCARDLGYFDVWGQGTLVTVSSASTKGPSVFPLAPSSKSTSGGTAALGCLVKDYFPEPVTVSWNSGALTSGVHTFPAVLQSSGLYSLSSVVTVPSSSLGTQTYICNVNHKPSNTKVDKKVEPKSCDKTHTCPPCPAPELLGPSVFLFPPKPKDTLMISRTPEVTCVVVDVSHEDPEVKFNWYVDGVEVHNAKTKPREEQYNSTYRVVSVLTVLHQDWLNGKEYKCKVSNKALPAPIEKTISKAKGQPREPQVYTLPPSREEMTKNQVSLTCLVKGFYPSDIAVEWESNGQPENNYKTTPPVLDSDGSFFLYSKLTVDKSRWQQGNVFSCSVMHEALHNHYTQKSLSLSPGK
light: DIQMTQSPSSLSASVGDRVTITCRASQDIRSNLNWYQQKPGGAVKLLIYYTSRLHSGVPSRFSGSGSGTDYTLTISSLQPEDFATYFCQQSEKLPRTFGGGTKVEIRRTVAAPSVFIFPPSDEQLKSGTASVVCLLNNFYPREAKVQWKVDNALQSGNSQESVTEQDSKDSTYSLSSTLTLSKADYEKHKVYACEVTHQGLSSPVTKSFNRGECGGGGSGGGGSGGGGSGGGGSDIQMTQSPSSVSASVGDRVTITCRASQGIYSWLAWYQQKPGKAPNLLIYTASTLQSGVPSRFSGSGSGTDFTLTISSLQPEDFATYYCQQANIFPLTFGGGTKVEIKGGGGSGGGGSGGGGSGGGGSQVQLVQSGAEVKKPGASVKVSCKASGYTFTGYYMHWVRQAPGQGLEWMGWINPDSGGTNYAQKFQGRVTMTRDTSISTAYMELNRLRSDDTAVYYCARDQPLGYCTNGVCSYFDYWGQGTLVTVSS
notes: Anti-CD40/CD137: Ly1630 heavy chain; Ly1630 light chain fused to Ly253 scFv (VL-VH)
B4: Ly741 (bispecific antibody, human IgG1, kappa)
heavy: B3 heavy
light: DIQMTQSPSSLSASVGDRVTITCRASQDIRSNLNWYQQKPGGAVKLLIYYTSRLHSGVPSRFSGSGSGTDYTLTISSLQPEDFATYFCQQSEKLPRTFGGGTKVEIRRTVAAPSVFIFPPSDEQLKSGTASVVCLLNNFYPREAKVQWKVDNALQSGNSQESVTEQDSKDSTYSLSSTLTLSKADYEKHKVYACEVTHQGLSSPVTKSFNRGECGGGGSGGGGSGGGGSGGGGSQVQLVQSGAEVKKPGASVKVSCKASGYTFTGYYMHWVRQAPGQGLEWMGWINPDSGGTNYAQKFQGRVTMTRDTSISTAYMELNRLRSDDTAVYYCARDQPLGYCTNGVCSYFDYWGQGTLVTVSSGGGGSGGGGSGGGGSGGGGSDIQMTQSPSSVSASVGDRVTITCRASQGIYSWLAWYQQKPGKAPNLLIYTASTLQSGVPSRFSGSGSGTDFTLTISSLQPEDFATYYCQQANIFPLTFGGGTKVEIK
notes: Anti-CD40/CD137: Ly1630 heavy chain; Ly1630 light chain fused to Ly253 scFv (VH-VL)
B5: Ly742 (bispecific antibody, human IgG1, kappa)
heavy: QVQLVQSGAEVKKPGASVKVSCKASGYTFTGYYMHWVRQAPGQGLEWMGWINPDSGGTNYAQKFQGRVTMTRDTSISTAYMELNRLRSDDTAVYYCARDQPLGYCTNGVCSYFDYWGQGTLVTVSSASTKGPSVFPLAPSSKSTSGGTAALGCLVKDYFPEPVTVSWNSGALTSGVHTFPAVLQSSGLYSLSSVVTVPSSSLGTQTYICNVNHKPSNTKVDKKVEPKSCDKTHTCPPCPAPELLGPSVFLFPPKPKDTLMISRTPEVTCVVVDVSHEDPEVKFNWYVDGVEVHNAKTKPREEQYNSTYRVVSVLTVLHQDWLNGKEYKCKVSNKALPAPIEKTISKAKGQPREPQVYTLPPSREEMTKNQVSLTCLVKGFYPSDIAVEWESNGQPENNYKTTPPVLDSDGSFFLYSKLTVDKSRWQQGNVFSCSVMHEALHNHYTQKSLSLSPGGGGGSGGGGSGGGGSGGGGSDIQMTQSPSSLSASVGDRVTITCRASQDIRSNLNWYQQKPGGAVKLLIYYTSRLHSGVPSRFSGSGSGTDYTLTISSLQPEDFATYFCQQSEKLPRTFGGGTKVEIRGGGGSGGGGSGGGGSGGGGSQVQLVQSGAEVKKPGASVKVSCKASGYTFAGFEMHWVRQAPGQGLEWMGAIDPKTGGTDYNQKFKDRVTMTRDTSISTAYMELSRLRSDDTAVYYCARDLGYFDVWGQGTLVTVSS
light: DIQMTQSPSSVSASVGDRVTITCRASQGIYSWLAWYQQKPGKAPNLLIYTASTLQSGVPSRFSGSGSGTDFTLTISSLQPEDFATYYCQQANIFPLTFGGGTKVEIKRTVAAPSVFIFPPSDEQLKSGTASVVCLLNNFYPREAKVQWKVDNALQSGNSQESVTEQDSKDSTYSLSSTLTLSKADYEKHKVYACEVTHQGLSSPVTKSFNRGEC
notes: Anti-CD40/CD137: Ly253-derived heavy chain fused to Ly1630 scFv (VL-VH); Ly253 light chain
B6: Ly743 (bispecific antibody, human IgG1, kappa)
heavy: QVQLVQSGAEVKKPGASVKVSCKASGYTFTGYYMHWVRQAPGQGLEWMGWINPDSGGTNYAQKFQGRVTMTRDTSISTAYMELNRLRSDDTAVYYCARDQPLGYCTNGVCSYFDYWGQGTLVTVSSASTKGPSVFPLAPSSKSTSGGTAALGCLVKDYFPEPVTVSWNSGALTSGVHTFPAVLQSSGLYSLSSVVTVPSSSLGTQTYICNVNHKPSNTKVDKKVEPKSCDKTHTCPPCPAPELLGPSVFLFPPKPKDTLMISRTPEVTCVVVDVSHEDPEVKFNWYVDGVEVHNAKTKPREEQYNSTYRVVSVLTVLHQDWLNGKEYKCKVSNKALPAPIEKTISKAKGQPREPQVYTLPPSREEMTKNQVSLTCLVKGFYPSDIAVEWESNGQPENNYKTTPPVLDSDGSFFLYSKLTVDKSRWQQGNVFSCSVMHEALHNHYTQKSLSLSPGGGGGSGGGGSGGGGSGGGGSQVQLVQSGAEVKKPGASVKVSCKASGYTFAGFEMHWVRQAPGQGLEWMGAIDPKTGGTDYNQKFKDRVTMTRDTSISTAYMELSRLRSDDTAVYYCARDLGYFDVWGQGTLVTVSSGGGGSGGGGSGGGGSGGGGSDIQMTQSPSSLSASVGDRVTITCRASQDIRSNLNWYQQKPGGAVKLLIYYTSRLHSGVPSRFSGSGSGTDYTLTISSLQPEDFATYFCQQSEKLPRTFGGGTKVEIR
light: B5 light
notes: Anti-CD40/CD137: Ly253-derived heavy chain fused to Ly1630 scFv (VH-VL); Ly253 light chain
B7: TM677 (antibody, human IgG1, kappa, V domains shown)
VH: QVQLQESGPGLVKPSETLSLTCTVSGFSLTSYNVHWIRQPPGKGLEWIGVIWSGVRTDYNSVLKSRVTISVDTSKNQFSLKLSSVTAADTAVYYCARGTYDANYHDVMDAWGQGTMVTVSS
VL: DTVLTQSPATLSLSPGERATLSCRASKSVRTGMHWYQQKPGQAPRLLVYGASNLESGIPARFSGSGSGTDFTLTISSLEPEDFATYFCHQSWNHFTFGQGTKLEIKR
notes: Humanized anti-GITR antibody with VL back mutations; also called humanized LYV392 antibody (VH-1/IgG1 mut, VL-2/kappa)
B8: Ly752 (bispecific antibody, human IgG1, kappa)
heavy: QVQLQESGPGLVKPSETLSLTCTVSGFSLTSYNVHWIRQPPGKGLEWIGVIWSGVRTDYNSVLKSRVTISVDTSKNQFSLKLSSVTAADTAVYYCARGTYDANYHDVMDAWGQGTMVTVSSASTKGPSVFPLAPSSKSTSGGTAALGCLVKDYFPEPVTVSWNSGALTSGVHTFPAVLQSSGLYSLSSVVTVPSSSLGTQTYICNVNHKPSNTKVDKKVEPKSCDKTHTCPPCPAPELLGPSVFLFPPKPKDTLMISRTPEVTCVVVDVSHEDPEVKFNWYVDGVEVHNAKTKPREEQYNSTYRVVSVLTVLHQDWLNGKEYKCKVSNKALPAPIEKTISKAKGQPREPQVYTLPPSREEMTKNQVSLTCLVKGFYPSDIAVEWESNGQPENNYKTTPPVLDSDGSFFLYSKLTVDKSRWQQGNVFSCSVMHEALHNHYTQKSLSLSPGK
light: DTVLTQSPATLSLSPGERATLSCRASKSVRTGMHWYQQKPGQAPRLLVYGASNLESGIPARFSGSGSGTDFTLTISSLEPEDFATYFCHQSWNHFTFGQGTKLEIKRTVAAPSVFIFPPSDEQLKSGTASVVCLLNNFYPREAKVQWKVDNALQSGNSQESVTEQDSKDSTYSLSSTLTLSKADYEKHKVYACEVTHQGLSSPVTKSFNRGECGGGGSGGGGSGGGGSGGGGSDIQMTQSPSSLSASVGDRVTITCRASQDIRSNLNWYQQKPGGAVKLLIYYTSRLHSGVPSRFSGSGSGTDYTLTISSLQPEDFATYFCQQSEKLPRTFGGGTKVEIRGGGGSGGGGSGGGGSGGGGSQVQLVQSGAEVKKPGASVKVSCKASGYTFAGFEMHWVRQAPGQGLEWMGAIDPKTGGTDYNQKFKDRVTMTRDTSISTAYMELSRLRSDDTAVYYCARDLGYFDVWGQGTLVTVSS
notes: Anti-GITR/CD137: TM677-derived heavy chain; TM677 light chain fused to Ly1630 scFv (VL-VH)
B9: Ly753 (bispecific antibody, human IgG1, kappa)
heavy: B8 heavy
light: DTVLTQSPATLSLSPGERATLSCRASKSVRTGMHWYQQKPGQAPRLLVYGASNLESGIPARFSGSGSGTDFTLTISSLEPEDFATYFCHQSWNHFTFGQGTKLEIKRTVAAPSVFIFPPSDEQLKSGTASVVCLLNNFYPREAKVQWKVDNALQSGNSQESVTEQDSKDSTYSLSSTLTLSKADYEKHKVYACEVTHQGLSSPVTKSFNRGECGGGGSGGGGSGGGGSGGGGSQVQLVQSGAEVKKPGASVKVSCKASGYTFAGFEMHWVRQAPGQGLEWMGAIDPKTGGTDYNQKFKDRVTMTRDTSISTAYMELSRLRSDDTAVYYCARDLGYFDVWGQGTLVTVSSGGGGSGGGGSGGGGSGGGGSDIQMTQSPSSLSASVGDRVTITCRASQDIRSNLNWYQQKPGGAVKLLIYYTSRLHSGVPSRFSGSGSGTDYTLTISSLQPEDFATYFCQQSEKLPRTFGGGTKVEIR
notes: Anti-GITR/CD137: TM677-derived heavy chain; TM677 light chain fused to Ly1630 scFv (VH-VL)
B10: Ly745 (bispecific antibody, human IgG1, kappa)
heavy: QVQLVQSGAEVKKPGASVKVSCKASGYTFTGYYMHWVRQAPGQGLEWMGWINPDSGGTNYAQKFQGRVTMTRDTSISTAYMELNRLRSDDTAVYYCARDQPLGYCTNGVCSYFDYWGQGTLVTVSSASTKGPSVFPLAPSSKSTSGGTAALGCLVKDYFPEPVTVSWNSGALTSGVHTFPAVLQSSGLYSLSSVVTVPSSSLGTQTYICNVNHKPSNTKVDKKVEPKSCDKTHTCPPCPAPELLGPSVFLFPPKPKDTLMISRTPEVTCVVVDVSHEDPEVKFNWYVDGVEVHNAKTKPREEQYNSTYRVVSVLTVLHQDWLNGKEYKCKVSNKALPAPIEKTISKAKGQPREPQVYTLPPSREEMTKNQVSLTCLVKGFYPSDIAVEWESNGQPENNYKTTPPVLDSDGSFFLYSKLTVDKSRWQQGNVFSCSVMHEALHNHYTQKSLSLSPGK
light: DIQMTQSPSSVSASVGDRVTITCRASQGIYSWLAWYQQKPGKAPNLLIYTASTLQSGVPSRFSGSGSGTDFTLTISSLQPEDFATYYCQQANIFPLTFGGGTKVEIKRTVAAPSVFIFPPSDEQLKSGTASVVCLLNNFYPREAKVQWKVDNALQSGNSQESVTEQDSKDSTYSLSSTLTLSKADYEKHKVYACEVTHQGLSSPVTKSFNRGECGGGGSGGGGSGGGGSGGGGSQVQLVQSGAEVKKPGASVKVSCKASGYTFAGFEMHWVRQAPGQGLEWMGAIDPKTGGTDYNQKFKDRVTMTRDTSISTAYMELSRLRSDDTAVYYCARDLGYFDVWGQGTLVTVSSGGGGSGGGGSGGGGSGGGGSDIQMTQSPSSLSASVGDRVTITCRASQDIRSNLNWYQQKPGGAVKLLIYYTSRLHSGVPSRFSGSGSGTDYTLTISSLQPEDFATYFCQQSEKLPRTFGGGTKVEIR
notes: Anti-CD40/CD137: Ly253-derived heavy chain; Ly253 light chain fused to Ly1630 scFv (VH-VL)

Tests used:
[1] = biological target: T2, human CD137 expressed on cells (human, UniProt Q07011 24-255); assay: FACS on CHO cells expressing human CD137 (MFI)
T2 construct: whole, on cells; also called 4-1BB; TNFRSF9
T2 sequence (Q07011 24-255): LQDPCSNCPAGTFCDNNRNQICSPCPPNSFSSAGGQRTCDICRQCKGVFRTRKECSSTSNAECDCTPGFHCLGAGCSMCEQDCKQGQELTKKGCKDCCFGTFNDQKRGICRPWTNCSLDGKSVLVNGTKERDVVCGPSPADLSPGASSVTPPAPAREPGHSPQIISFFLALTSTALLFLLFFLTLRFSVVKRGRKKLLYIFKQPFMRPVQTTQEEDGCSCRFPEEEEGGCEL
Description: (§1) Anti-GITR/CD137 bi-specific antibodies were analyzed by FACS for their binding properties to human GITR and/or human CD137 expressed on CHO cells. Briefly, cultured cells were harvested, counted and cell viability was evaluated using the Trypan Blue exclusion method. Viable cells were then adjusted to 2×10⁶ cells per mL in PBS containing 2% BSA. 100 μL of this cell suspension were further aliquoted per well into a V-bottom 96-well plate. […] After incubation for 2 hours at 4° C., cells were centrifuged (3 min, 1000× g), washed with 250 μL/well BSA-containing FACS Stain Buffer, resuspended and incubated for an additional 1 hour at 4° C. with 100 μL/well fluorochrome-conjugated anti-IgG antibody for detection of the bisepecific antibody. Cells were then washed with 250 μL/well BSA-containing FACS Stain Buffer, resuspended in 100 μL/well FACS Stain Buffer, acquired and analyzed using a FACS machine. Binding of the bispecific antibodies to human GITR or human CD137 expressing CHO cells were evaluated and the mean fluorescence intensity is plotted in histograms or dot plots.

[2] = biological target: T3, human CD40 expressed on CHO cells (human, UniProt P25942 21-277); assay: FACS on CHO cells expressing human CD40 (MFI)
T3 construct: whole, on cells
T3 sequence (P25942 21-277): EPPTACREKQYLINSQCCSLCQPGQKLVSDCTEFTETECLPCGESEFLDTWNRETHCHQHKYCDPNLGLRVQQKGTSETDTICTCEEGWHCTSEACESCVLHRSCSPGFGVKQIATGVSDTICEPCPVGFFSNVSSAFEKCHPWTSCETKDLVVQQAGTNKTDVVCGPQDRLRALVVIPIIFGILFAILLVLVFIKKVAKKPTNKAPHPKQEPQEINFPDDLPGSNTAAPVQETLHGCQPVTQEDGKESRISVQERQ
Description: as §1, with “Anti-CD40/CD137” for “Anti-GITR/CD137”, “CD40” for “GITR”, “1000×g),” for “1000× g),”

[3] = biological target: T2, human CD137 expressed on cells; assay: FACS on CHO cells expressing human CD137 (MFI); remark: listed apart in the source
Description: as §1, with “Anti-CD40/CD137” for “Anti-GITR/CD137”, “CD40” for “GITR”, “1000×g),” for “1000× g),”

[4] = biological target: T1, human GITR expressed on cells; assay: flow cytometry (FACS), MFI, CHO cells expressing human GITR
Description: as §1

Row | Binder | EC50 (read off the curve) [1] [µg/mL] | binding result [2] | EC50 (read off the curve) [3] [µg/mL] | EC50 (read off the curve) [4] [µg/mL]
1 | B1 | ~0.2 |  |  | 
2 | B2 |  | binds | ~0.1 | 
3 | B3 |  | binds | ~0.04 | 
4 | B4 |  | binds | ~0.04 | 
5 | B5 |  | binds | ~0.07 | 
6 | B6 |  | binds | ~0.1 | 
7 | B7 |  |  |  | ~0.7
8 | B8 | ~0.4 |  |  | 
9 | B9 | ~0.7 |  |  | 
10 | B10 |  | binds | ~0.2 | 
